The DeepSol protein solubility set

test: soluble on expression in E. coli; label from the status in PepcDB or PDB records

Sequence | soluble on expression in E. coli
MPDSPAEVKTQPRSTPPSMPPPPPTSSQGATRPPSFTPHTLMNGSSHSPTAIHGAPSTPNGFSNGPATSSTASLSTQHLPPACGARQLSKLKRFLTTLQQFGSDISPEIGERVRTLVLGLVNSTLTIEEFHAKLQEATNFPLRPFVIPFLKANLPLLQRELLHCARLAKQTPAQYLAQHEQLLLDASATSPVDSSELLLEVNENGKRRTPDRTKENGSDRDPLHPDHLSKRSCTLSPAQRCSPSNGLPHPTPPPPPHYRLEDMAMAHHFRDSYRHPDPRELRERHRPLAIPGLDKKK | soluble
MSLTFCYPCRAFALLTRGFTSFMSGWPRIYYKLLNLPLSILVKSKSIPADPAPELGLDTSRPIMYVLPYNSKADLLTLRAQCLAHDLPDPLEPLEIDGTLLPRYVFIHGGPRVFTYYTPKEESIKLFHDYLDLHRSNPNLDVQMVPVSVMFGRAPGREKGEVNPPLRMLNGVQKFFAVLWLGRDSFVRFSPSVSLRRMADEHGTDKTIAQKLARVARMHFARQRLAAVGPRLPARQDLFNKLLASRAIAKAVEDEARSKKISHEKAQQNAIALMEEIAANFSYEMIRLTDRILGFTWNRLYQGINVHNAERVRQLAHDGHELVYVPCHRSHMDYLLLSYVLYHQGLVPPHIAAGINLNFWPAGPIFRRLGAFFIRRTFKGNKLYSTVFREYLGELFSRGYSVEYFVEGGRSRTGRLLDPKTGTLSMTIQAMLRGGTRPITLIPIYIGYEHVMEVGTYAKELRGATKEKESLPQMLRGLSKLRNLGQGYVNFGEPMPLMTYLNQHVPDWRESIDPIEAVRPAWLTPTVNNIAADLMVRINNAGAANAMNLCCTALLASRQRSLTREQLTEQLNCYLDLMRNVPYSTDSTVPSASASELIDHALQMNKFEVEKDTIGDIIILPREQAVLMTYYRNNIAHMLVLPSLMAAIVTQHRHISRDVLMEHVNVLYPMLKAELFLRWDRDELPDVIDALANEMQRQGLITLQDDELHINPVHSRTLQLLAAGARETLQRYAITFWLLSANPSINRGTLEKESRTVAQRLSVLHGINAPEFFDKAVFSSLVLTLRDEGYISDSGDAEPAETMKVYQLLAELITSDVRLTIESATQGEEGHHHHHH | soluble
MEECAVSGGFDVSPQELRTFAGKLDVHRSTAEEIAGLVTEADVPERSWGVVGLVVKSECTRMLGDLNELFTALQEGLRSGSEKFTGAAQDYTDQEEAVKELLSGLQVRLDERQGGR | not soluble
MGSDKIHHHHHHMTSQLNELVEFLHSPQPAVRQIAIDNLVGFSAGPTSKVFKNDSYRPIKDIIKMIMDPEHGTRVIIQQGVTILVNLSEDKLVRNIILSDDKKFLKFLVWKIVDLTNPNADIMCILLSNLAKDDGILAVLNIKRNSSGEEVDDGLKLAALNKEVFKSLRAMDCLMDCFVKGYDKKLTKYASFNYLAFFFADISRFKLGRMYFIEEQEYDGVVPISKLLVFTEKYDAKVRREGVASTIKNSLFDSETHERLLKDEKINLLPYILLPIASAKDSEIDEEDMFNLPDELQLLPEDKERDPIPAIICCHLESILLLCTTHAGREYLRDKSVYPLVRELHKNVENEDIGELCYRIVNMLMRGEPGAGAVEEMPSKNAEEEEEEESEEEEDDDEEDEIVEVA | not soluble
MEELQYFPYERLRPNQREFIEIVKEAVKRGENLIVEAPTGFGKTISVLAGVLPYAISLGYKVVYLARTHKQMDRVIEELKKIRERNEVSGIEFRSRRDLCLHSYIQTFVQDAYTSMIVCKTLRKLGKCPFFENIKEKRDRVEEIVRFFLNSPPFPHEVLEYSELLELCPYEITKKIGEKANVIVASYLYMISPPIRQAFLENLGVDYSDLIVIFDEAHNLPDQAISALSDRLSIRSIERAIKEAEEYGEKDIENFLSILLRGLEILYKEKLENYESEEVPIRPEEVFLHVASVLGWSGREIGMMLEDMIEVGDAIREDRIERNLPPRSYVGRVGEFLWNWLALREREDYLHLFTKERGLALELVALDPSVALEFLEEVHSAIFMSGTLSPLEAFRDIIGVKAELKKFPRMIKRENAIVLVARDVSTRGIERSPSLYRRISEYIFEAVRNTPKNVGVFTASYEVLEGILSTNVHIKIEEEIGKKVFIEKRDAPSRENDEMIRAFKEESKGKGAVLFGVMGGRNSEGQDYSGDEMNGVVLVGIPYARPTPRVQAQIRYFEKKFPGKGRYYGYVLPAHRKLTQAAGRVHRSEEEKGSIVILDYRVLWKSVKKDLPDWMVETMIPVTLPHYENKTLEHHHHHH | not soluble
MGSDKIHHHHHHMKRARIIYNPTSGREIFKKHLAQVLQKFEQAGYETSTHATTCAGDATHAAKEAALREFDLIIAAGGDGTINEVVNGLAPLDNRPTLGVIPVGTTNDFARALGIPREDILKAADTVINGVARPIDIGQVNGQYFINIAGGGRLTELTYDVPSKLKTMLGQLAYYLKGMEMLPSLRPTEVEIEYDGKLFQGEIMLFLVTLTNSVGGFEKLAPDSSLNDGMFDLMILKKANLAEFIRVATMALRGEHINDQHIIYTKANRVKVNVSEKMQLNLDGEYGGMLPGEFVNLYRHIHVVMPKEKAEQLDD | not soluble
SLPKQIDTILINIGQLLTMESSGPRAGKSMQDLHVIEDAVVGIHEQKIVFAGQKGAEAGYEADEIIDCSGRLVTPGLVDPHTHLVFGGSREKEMNLKLQGISYLDILAQGGGILSTVKDTRAASEEELLQKAHFHLQRMLSYGTTTAEVKSGYGLEKETELKQLRVAKKLHESQPVDLVSTFMGAHAIPPEYQNDPDDFLDQMLSLLPEIKEQELASFADIFTETGVFTVSQSRRYLQKAAEAGFGLKIHADEIDPLGGAELAGKLKAVSADHLVGTSDEGIKKLAEAGTIAVLLPGTTFYLGKSTYARARAMIDEGVCVSLATDFNPGSSPTENIQLIMSIAALHLKMTAEEIWHAVTVNAAYAIGKGEEAGQLKAGRSADLVIWQAPNYMYIPYHYGVNHVHQVMKNGTIVVNREGAILG | soluble
MVTPLTGTHEGVSCDGCAFTAFAGNRYKCLRCSDYDLCFSCFTTKNYGDQQTIADIPIHDESHPMQLILSSVDFDLVYQGDPTRHYDERKIVSFTCPYCNITGLTERQFGTHVLSQHPEAPGYSVICPLCIGNTEMEHIQSKETENLSVHWTEIHLHTMENLFRSTEPITTRPVQRRPMLARRGNRAGVSRTAAQGRPLQDEIGAEMAALLRNMGPDSVEDIRRFTEMMTVPLLPGIRSSQRLMTSTGDRPTVVVESAVTHQDPNVQQVIRPLATIPIYPPTSDESGDETPQPAADSADESEDDNDIQELDDMQPIVEDEALKKDEFWKTLKTRISEEDVDLILETMKSTAKVKEDIDDKMPVWTQRPLKRLANAAQVTTTSDSEGDPGWLPLSFETTPIRSTGCGGYWSDKRFLRPRKMQREQSVASSNAEIMEKAEIALALIRASCLHEPVFTDPTKPDIALKEALQHLRLGEKPAKMMEYQAAEELVNMPERDPITTGEMEVEIPDFTARGYGQIVDGNIPLGVVPEADEAITNSEDEEIVGGETSGDDEDEQEDDENDSQDSSVPEEINID | not soluble
MHHHHHHSSGVDLGTENLYFQSNAMELKDYYAILGVQPTDDLKTIKTAYRRLARKYHPDVSKENDAEAKFKDLAEAWEVLKDEQRRAEYDQLWQHRNDPGFGRQRQTHEQSYSQQDFDDIFSSMFGQQAHQRRRQHAARGHDLEIEVAVFLEETLAEQTRTISYNLPVYNVFGMIESETPKTLNVKIPAGVVDGQRIRLKGQGTPGENGGPNGDLWLVIHIAPHPLFDIVGHNLEIVLPLAPWEAALGAKVTVPTLKESILLTVPPGSQAGQRLRIKGKGLVSKTHTGDLFAVIKIVMPTKPDEKARELWQQLAAAEASFDPRKTWGKA | soluble
EGLLNNHLDIPTATTQALTIQPSASYRINDHWSVGAALGIQYGMYEVETKGALNFNDEDQDTQLNGRVGVLYEATPGTRLGLSYSSETEFEFDNSNSIAPQQLIFSAYHEVNDDLAVMWNVNWQDWSEYTTTLKAADLVDVETQDTYQIALGTQYKLNEKMMWNAGFAFDTSMYESQSNGDITVPTGKAYRIGTGIDYKLDSENSIGFAFEAVLMESSETPRLQAGFDEPALYFMSMSYNWKN | not soluble
MRKLFLLAIVLCVWSVVADAQESERRYIEVTGSSEIEVVPDEIHLLIQIKEYWKEEFVPKSKPEDYKTKVPLEWIEKDLRRVLSRAGISDEAIRVQEIGDYWRQKGKEFLIGKQLDIRFTDFEKINAVIKKIDTKGIESMRIGELKHKDLPNYRKQGKIEALKAAREKASYLVEAMGQKLGEVIRIVEPASSYVSPYSLYQAQSNVSMGTAATEQYRVITLRYEMTARFAIELEHHHHHH | soluble
MSLTHVIWDMGETLNTVPNTRYDHHPLDTYPEVVLRKNAKETLEKVKQLGFKQAILSNTATSDTEVIKRVLTNFGIIDYFDFIYASNSELQPGKMEKPDKTIFDFTLNALQIDKTEAVMVGNTFESDIIGANRAGIHAIWLQNPEVCLQDERLPLVAPPFVIPVWDLADVPEALLLLKKISEGHHHHHH | soluble
MLTRDFLQKADCRTSFGCIEETLLLTPQQRADSLDRMLALRPNSCPVWVFGYGSLMWNPVFDAEETCLATLTGWQRAFCLRLTIGRGTVTQPGRMLALQPGGQTTGLAFRLPKTSLREDLELLWKREMLTGCYRPLWCELHRKNGAPLTALVFVSEPEHPLNENDTCIQSVAPLIARASGPLGTNAQYLFALEQELKNHGTEDESVSELAQRVRTLQQSCPAPAGGGQLEHHHHHH | not soluble
MSLAKIVNVRPVLLSTPYGFEGCAENALHLPNGIRGCSMVEITLDNGVKGLGEGYLGVFAPDVFTSIARLVGTAITGDDISNGYGAVLAKAKTVTAYWSLQGAAQHVISAIEIALVDALSRVREIPAVELFGGKKVESIAMYGSGGDSLHPQYMAQELEQLAQRGIQTIKIRARHHQAAKTIWTIEAGRQYGIRVAVDMTQNLSIEGQTAEQVQAFCDLIQRETGEELVFVEECLGLDKLTQLPLLALQEGIAVAGGEIVTTKEELFDRIDANYYNVVQPDASVLGGIGDTIAVCEYAKQRSVNPVVHSWGGPVAMMANYVAAFATGCSLIEYPMPHFELRNVMCNLESRIHDGHFHLGDDIGLGVTLTDDIEGQFPHTNDALYHCFPMEDGLQQLEDSHRHWVKAEGHHHHHH | soluble
SSGGGTETPVACDAAQGGKKRDSLGTPGAAHLIIKDLGEIHSRLLDHRPVTQGEIRYFVKEFEEKRGLRELRVLKNLENTIQETNECLLPKCRETMECGLGETLQRLQAANDSICRLQQREQERKKVINDYLTASEKRRLVQWEEFVSGQPQRRAEVDEEHRRAVERLREQYAAMEKDLAKFSTF | soluble
ASIPEGTDKNAPLTSIPGYIPNMLSPPKGDAFAARNQFALAIDFEHQPPFFDVTETHKAATWLLHPQAPKVEMPADVKEKIAITRKALAIKMPSQPVKQPKSNGNKKTKTKSAR | soluble
HDDGLPAFRYSAELLGQLQLPSVALPLNDDLFLYGRDAEAFDLEAYLALNAPALRDKSEYLEHWSGYYSINPKVLLTLMVMQSGPLGAPDERALAAPLGRLSAKRGFDAQVRDVLQQLSRRYYGFEEYQLRQAAARKAVGEDGLNAASAALLGLLREGAKVSAVQGGNPLGAYAQTFQRLFGTPAAELLQPSNRVARQLQAKAALAPPSNLMQLPWRQGYSWQPNGAHSNTGSGYPYSSFDASYDWPRWGSATYSVVAAHAGTVRVLSRCQVRVTHPSGWATNYYHMDQIQVSNGQQVSADTKLGVYAGNINTALCEGGSSTGPHLHFSLLYNGAFVSLQGASFGPYRINVGTSNYDNDCRRYYFYNQSAGTTHCAFR | not soluble
MKVTQLSSETLDRAHERFEETLAQMTVAEANTMPAPLIKSVTWLMWHTARELDLQISALNHSDPLWLSQHWTEKFALDLPDETEDWHHTPEEAAKVVVAEKQLLSDYLAASVALTKSYLDQIKEEQLSDVIDKNWTPPVTRQVRLVSAIDDAVMHSGQAVYTRRLVIGK | soluble
